Starred links: 1 amine or outer side, 2 acyl side, 3 side chain; linkers in the order of their positions; H or OH if unused. Non-standard residues stand in square brackets, D forms with d. Groups on a side chain read outwards from the residue. Primed or numbered codes have the meaning given here. No end group written: not given here. *: point of attachment. γGlu = O=C(O)[C@H](CCC(=O)[*:2])N[*:1]; Palmitoyl = CCCCCCCCCCCCCCCC(=O)*; αMeF = C[C@](N)(Cc1ccccc1)C(=O)O; αMeK = C[C@](N)(CCCCN)C(=O)O; Lauroyl = CCCCCCCCCCCC(=O)*; αMeS = C[C@](N)(CO)C(=O)O; PEG2′ = not defined here; Aib = CC(C)(N)C(=O)O
T1: glucose-dependent insulinotropic peptide (gastric inhibitory polypeptide) receptor (GIPR), primary cAMP assay (human, UniProt P48546 22-466)
T1 sequence (looked up): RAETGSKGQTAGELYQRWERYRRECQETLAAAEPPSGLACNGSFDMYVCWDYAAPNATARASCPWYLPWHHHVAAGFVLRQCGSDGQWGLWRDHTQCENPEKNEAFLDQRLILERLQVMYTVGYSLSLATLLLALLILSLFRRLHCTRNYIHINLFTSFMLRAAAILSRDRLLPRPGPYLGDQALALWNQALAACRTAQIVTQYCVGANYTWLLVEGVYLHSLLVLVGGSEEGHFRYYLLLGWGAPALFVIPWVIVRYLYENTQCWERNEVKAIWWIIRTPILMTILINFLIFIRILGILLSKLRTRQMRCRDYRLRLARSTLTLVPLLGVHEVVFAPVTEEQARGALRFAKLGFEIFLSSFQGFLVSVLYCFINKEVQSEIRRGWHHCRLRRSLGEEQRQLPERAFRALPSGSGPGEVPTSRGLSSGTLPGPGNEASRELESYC

T2: GLP-1R in the INS1e assay (UniProt P32301 22-463, limits assumed)
T2 sequence (looked up): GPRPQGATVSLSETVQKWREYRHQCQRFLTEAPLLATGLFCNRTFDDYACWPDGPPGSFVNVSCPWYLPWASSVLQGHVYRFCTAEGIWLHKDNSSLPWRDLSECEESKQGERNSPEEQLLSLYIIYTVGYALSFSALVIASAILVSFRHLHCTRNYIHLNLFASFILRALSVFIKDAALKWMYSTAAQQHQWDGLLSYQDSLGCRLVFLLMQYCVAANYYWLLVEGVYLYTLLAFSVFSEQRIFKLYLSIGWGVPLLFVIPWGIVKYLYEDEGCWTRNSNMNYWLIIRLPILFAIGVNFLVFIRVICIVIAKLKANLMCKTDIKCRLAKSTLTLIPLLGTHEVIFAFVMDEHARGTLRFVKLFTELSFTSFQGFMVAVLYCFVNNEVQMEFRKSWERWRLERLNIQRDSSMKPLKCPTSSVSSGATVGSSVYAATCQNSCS


What was measured:
Assay in all cases: cell-based or functional assay
[1] = target: glucagon receptor (GCGR), primary cAMP assay (human, UniProt P47871 26-477)
[2] = target: GLP-1 receptor (GLP-1R), primary cAMP assay (human, UniProt P43220 24-463)
[3] = target: T1, glucose-dependent insulinotropic …
[4] = target: T2, GLP-1R in the INS1e assay

glucagon receptor (GCGR), primary cAMP assay, sequence (P47871 26-477): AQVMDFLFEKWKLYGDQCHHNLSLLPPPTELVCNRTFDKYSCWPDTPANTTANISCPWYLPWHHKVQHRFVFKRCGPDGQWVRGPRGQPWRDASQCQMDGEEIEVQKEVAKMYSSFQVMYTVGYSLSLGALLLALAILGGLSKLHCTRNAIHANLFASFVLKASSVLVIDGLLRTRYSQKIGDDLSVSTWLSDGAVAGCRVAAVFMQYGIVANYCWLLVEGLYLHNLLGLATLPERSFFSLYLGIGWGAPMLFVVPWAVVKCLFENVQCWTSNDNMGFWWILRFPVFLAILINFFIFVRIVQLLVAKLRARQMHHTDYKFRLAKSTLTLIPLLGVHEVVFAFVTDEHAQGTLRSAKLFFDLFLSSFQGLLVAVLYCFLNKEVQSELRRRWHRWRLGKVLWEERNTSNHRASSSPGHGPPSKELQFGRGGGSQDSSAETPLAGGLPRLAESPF

| Binder | Primary assay EC50 (cAMP), n1 [1] [nM] | Primary assay EC50 (cAMP), n2 [1] [nM] | Primary assay EC50 (cAMP) Mean [2] [nM] | Primary assay EC50 (cAMP), n1 [2] [nM] | Primary assay EC50 (cAMP), n2 [2] [nM] | Primary assay EC50 (cAMP), n1 [3] [nM] | Primary assay EC50 (cAMP), n2 [3] [nM] | INS1e assay EC50 (cAMP) Mean [4] [nM] | INS1e assay EC50 (cAMP) n1 [4] [nM] | INS1e assay EC50 (cAMP) n2 [4] [nM] |
| --- | --- | --- | --- | --- | --- | --- | --- | --- | --- | --- |
| H[Aib]EGS[αMeF]TSDK([PEG2′-PEG2′-γGlu-Lauroyl])SSYLEGEAA[αMeK]EFIK([PEG2′-PEG2′-γGlu-Lauroyl])WVVEGG-NH2 [SEQ ID NO: 256] | 22.2 | 22.2 | 0.0075 | 0.00946 | 0.00557 | 22.2 | 22.2 | 1.29 | 1.25 | 1.34 |
| H[Aib]EGS[αMeF]TSDV[αMeS]SK([PEG2′-PEG2′-γGlu-Lauroyl])LEGEAA[αMeK]EFIAK([PEG2′-PEG2′-γGlu-Lauroyl])VVEGG-NH2 [SEQ ID NO: 263] | 21.5 | 21.5 | 0.0012 | 0.000998 | 0.00145 | 21.5 | 21.5 | 0.132 | 0.12 | 0.144 |
| H[Aib]EGS[αMeF]TSDV[αMeS]SK([PEG2′-PEG2′-γGlu-Lauroyl])LEGEAA[αMeK]EFIK([PEG2′-PEG2′-γGlu-Lauroyl])WVVEGG-NH2 [SEQ ID NO: 262] | 22.5 | 22.5 | 0.0054 | 0.00673 | 0.00414 | 22.5 | 22.5 | 0.552 | 0.7 | 0.403 |
| H[Aib]EGS[αMeF]TSDV[αMeS]SK([PEG2′-PEG2′-γGlu-Lauroyl])LEGEAA[αMeK]EFIAWK([PEG2′-PEG2′-γGlu-Lauroyl])VEGG-NH2 [SEQ ID NO: 264] | 22.6 | 22.6 | 0.0128 | 0.0182 | 0.00737 | 22.6 | 22.6 | 1.03 | 0.963 | 1.1 |
| H[Aib]EGS[αMeF]TSDK([PEG2′-PEG2′-γGlu-Lauroyl])SSYLEGEAA[αMeK]EFIAK([PEG2′-PEG2′-γGlu-Lauroyl])VVEGG-NH2 [SEQ ID NO: 257] | 22.8 | 22.8 | 0.0084 | 0.00436 | 0.0124 | 22.8 | 22.8 | 0.577 | 0.812 | 0.342 |
| H[Aib]EGS[αMeF]TSDV[αMeS]SK([PEG2′-PEG2′-γGlu-Palmitoyl])LEGEAA[αMeK]EFIK([PEG2′-PEG2′-γGlu-Palmitoyl])WVVEGG-NH2 [SEQ ID NO: 265] | 21.6 | 21.6 | 0.0336 | 0.0391 | 0.028 | 21.6 | 21.6 | 8.77 | 12.2 | 5.34 |

— US20200079833A1 (AstraZeneca / MedImmune, published 2020)
